According to US11434267B2, “Peptides having reduced toxicity that stimulate cholesterol efflux” (The Regents of the University of California, priority 2013, dated 2022):

Legend:
[1] = system: New Zealand White rabbits; test: High-dose IV bolus toxicity of ATI-5261 in rabbits (plasma ALT, AST, TG, cholesterol); type: in vivo, rabbit
Description: Peptides or peptidomeimetics of the invention can be evaluated for toxicity using known assays. Examples of such assays are illustrated in the Examples section. Toxicity is typically assayed in a rat, rabbit, mouse, monkey or dog model. […] Safety chemistry panels including plasma alanine aminotransferase (ALT), aspartate amino transferase (AST), and creatine kinase (CK) can then be determined in the blood. The presence of elevated levels of these enzymes in the blood compared to control normal values is indicative of toxicity. A peptide of the invention is typically considered to be non-toxic or to have little toxicity, when the results using the highest dose, 300 mg/kg in this illustrative assay, are equivalent (fall within the standard deviation) of the values measured for the control animals that received vehicle alone, or are no more than 2 or 3 times background obtained with vehicle alone. […]
Cytotoxicity of an HDL mimetic peptide ATI-5261 at high doses was evaluated in rats and rabbits (FIG. 1). […]
For the experiments in FIG. 2, male chow-fed Wistar rats (Panels A and B) were administered ATI-5261 at doses of 3, 30, and 300 mg/kg as described in FIG. 1. Plasma triglyceride (TG, Panel A) and unesterified cholesterol (Panel B) concentrations were determined enzymatically at the times indicated. […]

ABCG1 = target: T1, ABCG1 (Homo sapiens, UniProt P45844); test: ABCG1 mediated cholesterol efflux from BHK cells stably transfected with ABCG1; type: cell-based; details: BHK-ABCG1 vs mock, 50 μg peptide/ml, time-course and 4 h
T1 construct: expressed in transfected cells; host or cells: BHK cells, stably transfected
Description: To further evaluate potential anti-atherogenic mechanisms of CS6253, BHK cells stably transfected with ABCG1 and mock-transfected control cells were labeled with [3H]cholesterol and used in efflux experiments. […] Panel A—Time-course for ABCG1 mediated cholesterol efflux from cells to lipid-free CS6253 peptide or CS6253:POPC complexes. […] Panel B—Comparison between CS6253 and ATI-5261 in mediating cellular cholesterol efflux via ABCG1. [3H]cholesterol labeled BHK cells (ABCG1 vs. mock transfected; left bars, control BHK, right bars, G1-BHK) were incubated with either lipid-free peptide or peptides formulated with POPC.

C57Bl/6 mice = details: mouse, in vivo, ip, 300 mg/kg
cynomolgus monkeys = test: IV infusion toxicity of ATI-5261 in monkeys; type: in vivo, cynomolgus monkey
Experimental: Male (upper panel) and female (lower panel) cynomolgus monkeys were administered ATI-5261 at a fixed dose of 100 mg/kg by IV infusion (60 min) every 96 hours for a total of 4 injections. Blood was collected 24 h post infusion and levels of plasma ALT, AST, creatine kinase (CPK), and total and indirect bilirubin determined. Values are expressed as a fold-increase vs. pre-dose levels.

human plasma = test: Cholesterol efflux activity of human plasma treated with lipid-free peptide (J774 cells); type: cell-based; details: plasma + 300 μg/ml peptide 5 min 4° C., diluted to 1%, cAMP treated J774
Experimental: (FIG. 33). To test whether CS6253 exerts anti-atherogenic effects in a biological milieu, human plasma was exposed (5 min) to lipid-free peptide. Interactions of CS6253 with HDL in plasma and activity of plasma to stimulate cholesterol efflux was assessed; the latter using J774 macrophages labeled with [3H]cholesterol. Panel A—Cholesterol efflux activity of plasma treated with lipid-free peptides. Human plasma was incubated with 300 μg/ml peptides for 5 minutes (4° C.), diluted to 1% in serum-free RPMI-1640 culture medium and immediately added to [3H]cholesterol-labeled J774 cells. […] Panel B—Induction of preβ HDL upon treatment of human plasma with CS6253. Plasma was exposed to a small amount of peptide relative to endogenous apoA-I (1:10 mole ratio, respectively) and formation of preβ HDL assessed by 2D non-denaturing gradient gel electrophoresis (NDGGE) and western blot analysis. […] The results are consistent with the production of authentic preβ HDL particles composed entirely of endogenous apoA-I.
To test whether T6991-2 exerts anti-atherogenic effects in a biological milieu, human plasma was exposed (5 min) to lipid-free peptide. Interactions of T6991-2 with HDL in plasma and activity of plasma to stimulate cholesterol efflux was assessed using J774 macrophages labeled with [3H]cholesterol. Panel A—Cholesterol efflux activity of plasma treated with lipid-free peptides. […]

ATI-5261: HDL mimetic peptide, parent peptide with phenylalanine and arginine residues; toxic at high doses; used as positive control (EVRSKLEEWFAAFREFAEEFLARLKS)
plasma triglycerides and unesterified cholesterol ([1]; single IV bolus): increased plasma triglycerides and cholesterol
cytotoxic response (plasma ALT, AST) ([1]; single IV bolus 3, 30 or 300 mg/kg): induced a cytotoxic response
cholesterol efflux via ABCG1 (ABCG1): poorly active
triglyceride (TG) (C57Bl/6 mice): triglyceride (TG) elevation effects
cytotoxic response (ALT, AST, CPK, bilirubin) (cynomolgus monkeys; 100 mg/kg IV infusion (60 min) every 96 hours, 4 injections, 24 h post infusion): induced a cytotoxic response
plasma creatine kinase, fold-increase vs. pre-dose (cynomolgus monkeys; 100 mg/kg IV infusion, after the first infusion, male and female): marked increase
capacity of treated plasma to stimulate cholesterol efflux via ABCA1 (human plasma): possessed greater capacity to stimulate cholesterol efflux
